The chains are these.
B1: feline IgG1a H436R (antibody, part only; not given: Variable domains, not shown: another chain or arm of the molecule)
constant: ASTTAPSVFPLAPSCGTTSGATVALACLVLGYFPEPVTVSWNSGALTSGVHTFPAVLQASGLYSLSSMVTVPSSRWLSDTFTCNVAHPPSNTKVDKTVRKTDHPPGPKPCDCPKCPPPEMLGGPSIFIFPPKPKDTLSISRTPEVTCLVVDLGPDDSDVQITWFVDNTQVYTAKTSPREEQFNSTYRVVSVLPILHQDWLKGKEFKCKVNSKSLPSPIERTISKAKGQPHEPQVYVLPPAQEELSRNKVSVTCLIKSFHPPDIAVEWEITGQPEPENNYRTTPPQLDSDGTYFVYSKLSVDRSHWQRGNTYTCSVSHEALHSHRTQKSLTQSPGK
B2: feline IgG1a A378C (antibody, part only; not given: Variable domains, not shown: another chain or arm of the molecule)
constant: ASTTAPSVFPLAPSCGTTSGATVALACLVLGYFPEPVTVSWNSGALTSGVHTFPAVLQASGLYSLSSMVTVPSSRWLSDTFTCNVAHPPSNTKVDKTVRKTDHPPGPKPCDCPKCPPPEMLGGPSIFIFPPKPKDTLSISRTPEVTCLVVDLGPDDSDVQITWFVDNTQVYTAKTSPREEQFNSTYRVVSVLPILHQDWLKGKEFKCKVNSKSLPSPIERTISKAKGQPHEPQVYVLPPAQEELSRNKVSVTCLIKSFHPPDICVEWEITGQPEPENNYRTTPPQLDSDGTYFVYSKLSVDRSHWQRGNTYTCSVSHEALHSHHTQKSLTQSPGK
B3: feline IgG1a P247L (antibody, part only; not given: Variable domains, not shown: another chain or arm of the molecule)
constant: ASTTAPSVFPLAPSCGTTSGATVALACLVLGYFPEPVTVSWNSGALTSGVHTFPAVLQASGLYSLSSMVTVPSSRWLSDTFTCNVAHPPSNTKVDKTVRKTDHPPGPKPCDCPKCPPPEMLGGPSIFIFPPKLKDTLSISRTPEVTCLVVDLGPDDSDVQITWFVDNTQVYTAKTSPREEQFNSTYRVVSVLPILHQDWLKGKEFKCKVNSKSLPSPIERTISKAKGQPHEPQVYVLPPAQEELSRNKVSVTCLIKSFHPPDIAVEWEITGQPEPENNYRTTPPQLDSDGTYFVYSKLSVDRSHWQRGNTYTCSVSHEALHSHHTQKSLTQSPGK
B4: feline IgG1a T250Q (antibody, part only; not given: Variable domains, not shown: another chain or arm of the molecule)
constant: ASTTAPSVFPLAPSCGTTSGATVALACLVLGYFPEPVTVSWNSGALTSGVHTFPAVLQASGLYSLSSMVTVPSSRWLSDTFTCNVAHPPSNTKVDKTVRKTDHPPGPKPCDCPKCPPPEMLGGPSIFIFPPKPKDQLSISRTPEVTCLVVDLGPDDSDVQITWFVDNTQVYTAKTSPREEQFNSTYRVVSVLPILHQDWLKGKEFKCKVNSKSLPSPIERTISKAKGQPHEPQVYVLPPAQEELSRNKVSVTCLIKSFHPPDIAVEWEITGQPEPENNYRTTPPQLDSDGTYFVYSKLSVDRSHWQRGNTYTCSVSHEALHSHHTQKSLTQSPGK
B5: feline IgG1a L432S (antibody, part only; not given: Variable domains, not shown: another chain or arm of the molecule)
constant: ASTTAPSVFPLAPSCGTTSGATVALACLVLGYFPEPVTVSWNSGALTSGVHTFPAVLQASGLYSLSSMVTVPSSRWLSDTFTCNVAHPPSNTKVDKTVRKTDHPPGPKPCDCPKCPPPEMLGGPSIFIFPPKPKDTLSISRTPEVTCLVVDLGPDDSDVQITWFVDNTQVYTAKTSPREEQFNSTYRVVSVLPILHQDWLKGKEFKCKVNSKSLPSPIERTISKAKGQPHEPQVYVLPPAQEELSRNKVSVTCLIKSFHPPDIAVEWEITGQPEPENNYRTTPPQLDSDGTYFVYSKLSVDRSHWQRGNTYTCSVSHEASHSHHTQKSLTQSPGK
B6: feline IgG1a P247I (antibody, part only; not given: Variable domains, not shown: another chain or arm of the molecule)
constant: ASTTAPSVFPLAPSCGTTSGATVALACLVLGYFPEPVTVSWNSGALTSGVHTFPAVLQASGLYSLSSMVTVPSSRWLSDTFTCNVAHPPSNTKVDKTVRKTDHPPGPKPCDCPKCPPPEMLGGPSIFIFPPKIKDTLSISRTPEVTCLVVDLGPDDSDVQITWFVDNTQVYTAKTSPREEQFNSTYRVVSVLPILHQDWLKGKEFKCKVNSKSLPSPIERTISKAKGQPHEPQVYVLPPAQEELSRNKVSVTCLIKSFHPPDIAVEWEITGQPEPENNYRTTPPQLDSDGTYFVYSKLSVDRSHWQRGNTYTCSVSHEALHSHHTQKSLTQSPGK
B7: feline IgG1a T250I (antibody, part only; not given: Variable domains, not shown: another chain or arm of the molecule)
constant: ASTTAPSVFPLAPSCGTTSGATVALACLVLGYFPEPVTVSWNSGALTSGVHTFPAVLQASGLYSLSSMVTVPSSRWLSDTFTCNVAHPPSNTKVDKTVRKTDHPPGPKPCDCPKCPPPEMLGGPSIFIFPPKPKDILSISRTPEVTCLVVDLGPDDSDVQITWFVDNTQVYTAKTSPREEQFNSTYRVVSVLPILHQDWLKGKEFKCKVNSKSLPSPIERTISKAKGQPHEPQVYVLPPAQEELSRNKVSVTCLIKSFHPPDIAVEWEITGQPEPENNYRTTPPQLDSDGTYFVYSKLSVDRSHWQRGNTYTCSVSHEALHSHHTQKSLTQSPGK
B8: feline IgG1a P247V (antibody, part only; not given: Variable domains, not shown: another chain or arm of the molecule)
constant: ASTTAPSVFPLAPSCGTTSGATVALACLVLGYFPEPVTVSWNSGALTSGVHTFPAVLQASGLYSLSSMVTVPSSRWLSDTFTCNVAHPPSNTKVDKTVRKTDHPPGPKPCDCPKCPPPEMLGGPSIFIFPPKVKDTLSISRTPEVTCLVVDLGPDDSDVQITWFVDNTQVYTAKTSPREEQFNSTYRVVSVLPILHQDWLKGKEFKCKVNSKSLPSPIERTISKAKGQPHEPQVYVLPPAQEELSRNKVSVTCLIKSFHPPDIAVEWEITGQPEPENNYRTTPPQLDSDGTYFVYSKLSVDRSHWQRGNTYTCSVSHEALHSHHTQKSLTQSPGK
B9: feline IgG1a A378D (antibody, part only; not given: Variable domains, not shown: another chain or arm of the molecule)
constant: ASTTAPSVFPLAPSCGTTSGATVALACLVLGYFPEPVTVSWNSGALTSGVHTFPAVLQASGLYSLSSMVTVPSSRWLSDTFTCNVAHPPSNTKVDKTVRKTDHPPGPKPCDCPKCPPPEMLGGPSIFIFPPKPKDTLSISRTPEVTCLVVDLGPDDSDVQITWFVDNTQVYTAKTSPREEQFNSTYRVVSVLPILHQDWLKGKEFKCKVNSKSLPSPIERTISKAKGQPHEPQVYVLPPAQEELSRNKVSVTCLIKSFHPPDIDVEWEITGQPEPENNYRTTPPQLDSDGTYFVYSKLSVDRSHWQRGNTYTCSVSHEALHSHHTQKSLTQSPGK
B10: feline IgG1a A378E (antibody, part only; not given: Variable domains, not shown: another chain or arm of the molecule)
constant: ASTTAPSVFPLAPSCGTTSGATVALACLVLGYFPEPVTVSWNSGALTSGVHTFPAVLQASGLYSLSSMVTVPSSRWLSDTFTCNVAHPPSNTKVDKTVRKTDHPPGPKPCDCPKCPPPEMLGGPSIFIFPPKPKDTLSISRTPEVTCLVVDLGPDDSDVQITWFVDNTQVYTAKTSPREEQFNSTYRVVSVLPILHQDWLKGKEFKCKVNSKSLPSPIERTISKAKGQPHEPQVYVLPPAQEELSRNKVSVTCLIKSFHPPDIEVEWEITGQPEPENNYRTTPPQLDSDGTYFVYSKLSVDRSHWQRGNTYTCSVSHEALHSHHTQKSLTQSPGK
B11: feline IgG1a T437R (antibody, part only; not given: variable domains and light chain, not shown: another chain or arm of the molecule)
constant: ASTTAPSVFPLAPSCGTTSGATVALACLVLGYFPEPVTVSWNSGALTSGVHTFPAVLQASGLYSLSSMVTVPSSRWLSDTFTCNVAHPPSNTKVDKTVRKTDHPPGPKPCDCPKCPPPEMLGGPSIFIFPPKPKDTLSISRTPEVTCLVVDLGPDDSDVQITWFVDNTQVYTAKTSPREEQFNSTYRVVSVLPILHQDWLKGKEFKCKVNSKSLPSPIERTISKAKGQPHEPQVYVLPPAQEELSRNKVSVTCLIKSFHPPDIAVEWEITGQPEPENNYRTTPPQLDSDGTYFVYSKLSVDRSHWQRGNTYTCSVSHEALHSHHRQKSLTQSPGK
B12: feline IgG1a T250V (antibody, part only; not given: Variable domains, not shown: another chain or arm of the molecule)
constant: ASTTAPSVFPLAPSCGTTSGATVALACLVLGYFPEPVTVSWNSGALTSGVHTFPAVLQASGLYSLSSMVTVPSSRWLSDTFTCNVAHPPSNTKVDKTVRKTDHPPGPKPCDCPKCPPPEMLGGPSIFIFPPKPKDVLSISRTPEVTCLVVDLGPDDSDVQITWFVDNTQVYTAKTSPREEQFNSTYRVVSVLPILHQDWLKGKEFKCKVNSKSLPSPIERTISKAKGQPHEPQVYVLPPAQEELSRNKVSVTCLIKSFHPPDIAVEWEITGQPEPENNYRTTPPQLDSDGTYFVYSKLSVDRSHWQRGNTYTCSVSHEALHSHHTQKSLTQSPGK
B13: feline IgG1a T250S (antibody, part only; not given: Variable domains, not shown: another chain or arm of the molecule)
constant: ASTTAPSVFPLAPSCGTTSGATVALACLVLGYFPEPVTVSWNSGALTSGVHTFPAVLQASGLYSLSSMVTVPSSRWLSDTFTCNVAHPPSNTKVDKTVRKTDHPPGPKPCDCPKCPPPEMLGGPSIFIFPPKPKDSLSISRTPEVTCLVVDLGPDDSDVQITWFVDNTQVYTAKTSPREEQFNSTYRVVSVLPILHQDWLKGKEFKCKVNSKSLPSPIERTISKAKGQPHEPQVYVLPPAQEELSRNKVSVTCLIKSFHPPDIAVEWEITGQPEPENNYRTTPPQLDSDGTYFVYSKLSVDRSHWQRGNTYTCSVSHEALHSHHTQKSLTQSPGK
B14: feline IgG1a Y285A (antibody, part only; not given: Variable domains, not shown: another chain or arm of the molecule)
constant: ASTTAPSVFPLAPSCGTTSGATVALACLVLGYFPEPVTVSWNSGALTSGVHTFPAVLQASGLYSLSSMVTVPSSRWLSDTFTCNVAHPPSNTKVDKTVRKTDHPPGPKPCDCPKCPPPEMLGGPSIFIFPPKPKDTLSISRTPEVTCLVVDLGPDDSDVQITWFVDNTQVATAKTSPREEQFNSTYRVVSVLPILHQDWLKGKEFKCKVNSKSLPSPIERTISKAKGQPHEPQVYVLPPAQEELSRNKVSVTCLIKSFHPPDIAVEWEITGQPEPENNYRTTPPQLDSDGTYFVYSKLSVDRSHWQRGNTYTCSVSHEALHSHHTQKSLTQSPGK
B15: feline IgG1a T437A (antibody, part only; not given: Variable domains, not shown: another chain or arm of the molecule)
constant: ASTTAPSVFPLAPSCGTTSGATVALACLVLGYFPEPVTVSWNSGALTSGVHTFPAVLQASGLYSLSSMVTVPSSRWLSDTFTCNVAHPPSNTKVDKTVRKTDHPPGPKPCDCPKCPPPEMLGGPSIFIFPPKPKDTLSISRTPEVTCLVVDLGPDDSDVQITWFVDNTQVYTAKTSPREEQFNSTYRVVSVLPILHQDWLKGKEFKCKVNSKSLPSPIERTISKAKGQPHEPQVYVLPPAQEELSRNKVSVTCLIKSFHPPDIAVEWEITGQPEPENNYRTTPPQLDSDGTYFVYSKLSVDRSHWQRGNTYTCSVSHEALHSHHAQKSLTQSPGK
B16: feline IgG1a T250E (antibody, part only; not given: Variable domains, not shown: another chain or arm of the molecule)
constant: ASTTAPSVFPLAPSCGTTSGATVALACLVLGYFPEPVTVSWNSGALTSGVHTFPAVLQASGLYSLSSMVTVPSSRWLSDTFTCNVAHPPSNTKVDKTVRKTDHPPGPKPCDCPKCPPPEMLGGPSIFIFPPKPKDELSISRTPEVTCLVVDLGPDDSDVQITWFVDNTQVYTAKTSPREEQFNSTYRVVSVLPILHQDWLKGKEFKCKVNSKSLPSPIERTISKAKGQPHEPQVYVLPPAQEELSRNKVSVTCLIKSFHPPDIAVEWEITGQPEPENNYRTTPPQLDSDGTYFVYSKLSVDRSHWQRGNTYTCSVSHEALHSHHTQKSLTQSPGK

In this experiment the target is feline FcRn complex (FcRn-α subunit and β-microglobulin), biotin labeled (feline). The experiment is described as follows: SPR, pH 6. A general note: Surface plasmon resonance follows binding to a sensor surface in real time, without labels.
B1: the Kd (in general, the constant that tells how readily two partners part at equilibrium) amounted to 5.69 nM. In other words, the single-digit nanomolar range.
The figure for B2 is 77.3 nM; for B3 it is 4.72 nM; for B4 it is 4.35 nM.
The figure for B5 is 6.58 nM; for B6 it is 4.51 nM.
Take B7: the Kd came to 4.66 nM.
Then B8, with 5.21 nM; and B9, with 100 nM; and B10, with 63.6 nM.
B11: the Kd was determined as 6.85 nM.
The figure for B12 is 6.87 nM.
The figure for B13 is 4.94 nM; for B14 it is 8.01 nM.
Then B15, with 8.79 nM; and B16, with 6.07 nM.
